From paper PMC3735183

Target: human secretory immunoglobulin A (SIgA) (human) (UniProt P01833)
Experiment: SPR

Sequence of UniProt P01833 (P01833 whole entry, looked up): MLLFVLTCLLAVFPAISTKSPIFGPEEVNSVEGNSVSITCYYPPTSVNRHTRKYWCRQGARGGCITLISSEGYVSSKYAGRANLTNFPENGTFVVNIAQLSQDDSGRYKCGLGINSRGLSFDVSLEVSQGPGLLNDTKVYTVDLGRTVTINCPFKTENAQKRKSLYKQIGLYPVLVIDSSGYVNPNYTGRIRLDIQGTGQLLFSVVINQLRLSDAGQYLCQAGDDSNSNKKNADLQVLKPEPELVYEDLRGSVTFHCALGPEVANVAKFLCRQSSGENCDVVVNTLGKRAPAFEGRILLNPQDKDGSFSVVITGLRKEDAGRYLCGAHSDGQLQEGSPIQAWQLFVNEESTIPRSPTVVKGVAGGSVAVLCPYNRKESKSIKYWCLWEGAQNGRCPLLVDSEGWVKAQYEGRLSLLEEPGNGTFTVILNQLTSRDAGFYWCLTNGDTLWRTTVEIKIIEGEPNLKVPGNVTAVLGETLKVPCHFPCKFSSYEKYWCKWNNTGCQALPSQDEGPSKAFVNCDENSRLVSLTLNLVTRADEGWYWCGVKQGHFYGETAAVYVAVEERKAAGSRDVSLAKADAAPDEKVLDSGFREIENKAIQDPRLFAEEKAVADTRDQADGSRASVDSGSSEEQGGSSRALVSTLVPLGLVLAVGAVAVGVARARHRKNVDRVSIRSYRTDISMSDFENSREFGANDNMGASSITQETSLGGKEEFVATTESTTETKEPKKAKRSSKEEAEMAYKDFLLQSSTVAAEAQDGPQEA

EsiB (E. coli secretory immunoglobulin A-binding protein), recombinant, without signal peptide (natural protein)
Kd: 30.2 µM | koff: 0.042 s⁻¹ | kon: 1390 M⁻¹ s⁻¹
